For 3 substances, Kd results are on record in publication PMC3714538.

The assay addresses LC3B (protein of the ITC experiments) (UniProt Q9GZQ8). The experiment in a line: ITC.

Consider “OPTN peptide LIR_P0 (no phosphorylation) (from UniProt Q96CV9 169-184)”, for which the dissociation constant Kd was found to be 67 µM.

The substance “OPTN peptide LIR_Ptot (all serines phosphorylated) (from UniProt Q96CV9 169-184)” showed a Kd of 5 µM.

For the substance “OPTN peptide LIR_P1 (pSer177) (from UniProt Q96CV9 169-184)”, the Kd was 13 µM.
